Positions of bridges follow the written chain, without caps; N, C: chain ends.
Target: T1, CXCR4 receptor (Homo sapiens, UniProt P61073)
T1 construct: incubation of THP-1 cells with SDF-1; endogenous in cells; host or cells: THP-1 cells
Assay: [Ca2+]i mobilization in fura-2,AM loaded THP-1 cells (FIG. 5, Table 6)
Assay type: cell-based
Conditions: 1×10^6/ml
Description: Fura-2,AM loaded THP-1 cells (1×10^6/ml) were stimulated with SDF-1, Compound A or Compound K at the concentrations indicated. The values represent the mean ± one S.D. of n=3 experiments.
Fura-2,AM loaded THP-1 cells (1×10^6/ml) were stimulated with native SDF-1 and the SDF-1 peptide analogs at the concentration of native SDF-1 concentration that gave the maximum [Ca^2+]1 stimulation (1 μM). The values represent the mean ± one S.D. of n=3 experiments.
This example illustrates the efficacy of SDF-1 and SDF-1 peptide analogs in mediating intracellular calcium mobilization ([Ca^2+]i). To illustrate that the binding of SDF-1 and SDF-1 peptide analogs results in the agonistic induction of the CXCR4 receptor, [Ca^2+]i mobilization assays were conducted, the results of which are shown in FIG. 5. To obtain the data shown in FIG. 5, fura-2,AM loaded THP-1 cells (1×10^6/ml) were stimulated with Compound A/SDF-1, SDF-1(1-14)-(G)4-SDF-1(55-67) Lys20/Glu24-cyclic amide (SEQ ID NO:809) or Compound K/SDF-1(1-14)-(G)4-SDF-1(55-67)-Glu24/Lys28-cyclic amide (SEQ ID NO:803) at the concentrations indicated (the values represent the mean ± one S.D. of n=3 experiments). […]

T1 sequence (P61073 whole entry): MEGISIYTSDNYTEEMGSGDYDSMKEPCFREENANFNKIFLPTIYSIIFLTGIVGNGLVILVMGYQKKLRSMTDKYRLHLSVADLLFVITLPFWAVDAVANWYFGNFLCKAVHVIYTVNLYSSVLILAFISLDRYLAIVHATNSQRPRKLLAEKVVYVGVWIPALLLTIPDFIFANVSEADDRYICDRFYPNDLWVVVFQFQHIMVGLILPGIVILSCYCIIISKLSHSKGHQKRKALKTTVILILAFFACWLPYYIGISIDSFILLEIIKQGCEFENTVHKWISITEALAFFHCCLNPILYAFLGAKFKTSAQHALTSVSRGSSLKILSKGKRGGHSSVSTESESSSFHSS

EC50: 148 nM
Substance: H2N-Lys-Pro-Val-Ser-Leu-Ser-Tyr-Arg-Cys-Pro-Cys-Arg-Phe-Phe-[Gly-Gly-Gly-Gly]-Leu-Lys-Trp-Ile-Gln-Glu-Tyr-Leu-Glu-Lys-Ala-Leu-Asn-NH2 (H-KPVSLSYRCPCRFFGGGGLKWIQEYLEKALN-NH2; lactam 20-24; cysteine pairing not given here) [Compound A]

Reference: patent publication US20050059584A1, “Novel chemokine mimetics synthesis and their use” (priority 2002, published 2005)
